# B1: human sarcospan (hSSPN) (natural protein, UniProt Q14714 1-243, looked up)
# chain: MGKNKQPRGQQRQGGPPAADAAGPDDMEPKKGTGAPKECGEEEPRTCCGCRFPLLLALLQLALGIAVTVVGFLMASISSSLLVRDTPFWAGIIVCLVAYLGLFMLCVSYQVDERTCIQFSMKLLYFLLSALGLTVCVLAVAFAAHHYSQLTQFTCETTLDSCQCKLPSSEPLSRTFVYRDVTDCTSVTGTFKLFLLIQMILNLVCGLVCLLACFVMWKHRYQVFYVGVRICSLTASEGPQQKI
# notes: sarcospan, human, GenBank AF016028; hSSPN-TG muscle also holds endogenous mouse SSPN; also called human SSPN; source: transgenic overexpression in mouse skeletal muscle (hSSPN-TG, Ln3), quadriceps muscle lysate
# B2: mouse sarcospan (mSSPN) (natural protein, UniProt Q62147 1-216, looked up)
# chain: MGRKPSPRAQELPEEEARTCCGCRFPLLLALLQLALGIAVTVLGFLMASISPSLLVRDTPFWAGSIVCVVAYLGLFMLCVSYQVDERTCVQFSMKVFYFLLSALGLMVCMLAVAFAAHHYSLLAQFTCETSLDSCQCKLPSSEPLSRAFVYRDVTDCTSVTGTFKLFLIIQMVLNLVCGLVCLLACFVMWKHRYQVFYVGVGLRSLMASDGQLPKA
# notes: sarcospan, mouse, GenBank U02487; 25-kDa protein with four transmembrane domains; seen as monomer and as a dimer band on reducing SDS-PAGE of immunoprecipitates; also called mouse SSPN; murine SSPN; source: endogenous (wild type) or transgenic overexpression (mSSPN-TG, Ln28), mouse quadriceps muscle lysate
# Biological target: the molecule itself
# Test: oligomer bands on immunoblot of immunoprecipitated protein (reducing SDS-PAGE); quadriceps lysates (50 mM Tris, 150 mM NaCl, 1% NP-40, pH 7.4) of hSSPN-TG, mSSPN-TG, WT and SSPN-null mice immunoprecipitated with anti-SSPN monoclonal antibodies on protein A/G PLUS-agarose; eluates resolved by SDS-PAGE under reducing conditions and blotted with E2 or 10B8
protein,measurement,value
B1,stoichiometry N,2
B2,stoichiometry N,2
